Measurements from article PMC10630141, “OPUS-DSD: deep structural disentanglement for cryo-EM single-particle analysis” (Nature Methods, 2023).

Target: the molecule itself
Assay: cryo-EM structure; NEXT complex (MTR4, RBM7, ZCCHC8) purified on poly-flag-tag beads and Superdex 200, cross-linked in a 10-30% glycerol gradient with 0.2% glutaraldehyde, dialysed into 20 mM HEPES pH 7.4, 150 mM NaCl; single-particle analysis, signal of one MTR4 helicase domain subtracted

B1: ZCCHC8 (natural protein, UniProt Q6NZY4 1-707, looked up)
chain: MAAEVYFGDLELFEPFDHPEESIPKPVHTRFKDDDGDEEDENGVGDAELRERLRQCEETIEQLRAENQELKRKLNILTRPSGILVNDTKLDGPILQILFMNNAISKQYHQEIEEFVSNLVKRFEEQQKNDVEKTSFNLLPQPSSIVLEEDHKVEESCAIKNNKEAFSVVGSVLYFTNFCLDKLGQPLLNENPQLSEGWEIPKYHQVFSHIVSLEGQEIQVKAKRPKPHCFNCGSEEHQMKDCPMPRNAARISEKRKEYMDACGEANNQNFQQRYHAEEVEERFGRFKPGVISEELQDALGVTDKSLPPFIYRMRQLGYPPGWLKEAELENSGLALYDGKDGTDGETEVGEIQQNKSVTYDLSKLVNYPGFNISTPRGIPDEWRIFGSIPMQACQQKDVFANYLTSNFQAPGVKSGNKRSSSHSSPGSPKKQKNESNSAGSPADMELDSDMEVPHGSQSSESFQFQPPLPPDTPPLPRGTPPPVFTPPLPKGTPPLTPSDSPQTRTASGAVDEDALTLEELEEQQRRIWAALEQAESVNSDSDVPVDTPLTGNSVASSPCPNELDLPVPEGKTSEKQTLDEPEVPEIFTKKSEAGHASSPDSEVTSLCQKEKAELAPVNTEGALLDNGSVVPNCDISNGGSQKLFPADTSPSTATKIHSPIPDMSKFATGITPFEFENMAESTGMYLRIRSLLKNSPRNQQKNKKASE
notes: ZCCHC8 of the nuclear exosome-targeting (NEXT) complex; The complex was cross-linked with glutaraldehyde before the grids were made; ZCCHC8 forms the dimeric centre of the complex; also called ZCCHC8 center; ZCCHC8 dimeric center; source: HEK293 GnTI- cells infected with recombinant baculovirus, overexpressed separately; cell pellets of the three NEXT proteins mixed, purified as the complex …
stoichiometry N: 2
